The results in this text go back to paper PMC10998612.

In the experiment the target is eIF2 trimer (recombinant, not phosphorylated), P05198;P20042;P41091. Briefly: fluorescence polarisation. Particulars: chain shown with the change; 2.0 µM eIF2 trimer (highest analyte concentration); fluorescein-labeled R3 420-466 peptide as probe; parent: est. 90; read off a plot. (In general: In fluorescence polarisation assays a small probe gives low polarisation when free and higher when bound to something large.)
Chain of eIF2 trimer (recombinant, not phosphorylated), P05198;P20042;P41091 (chain, as listed by the source, chain 1 of 3): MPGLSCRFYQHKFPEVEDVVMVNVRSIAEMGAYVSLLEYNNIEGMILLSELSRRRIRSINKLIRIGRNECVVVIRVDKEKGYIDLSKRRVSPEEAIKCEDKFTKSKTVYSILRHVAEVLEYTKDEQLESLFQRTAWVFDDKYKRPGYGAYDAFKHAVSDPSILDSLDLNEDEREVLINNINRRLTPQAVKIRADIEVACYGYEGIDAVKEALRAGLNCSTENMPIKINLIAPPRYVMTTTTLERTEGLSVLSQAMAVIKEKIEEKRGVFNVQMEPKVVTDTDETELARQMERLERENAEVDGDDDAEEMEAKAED
Chain of eIF2 trimer (recombinant, not phosphorylated), P05198;P20042;P41091 (chain, as listed by the source, chain 2 of 3): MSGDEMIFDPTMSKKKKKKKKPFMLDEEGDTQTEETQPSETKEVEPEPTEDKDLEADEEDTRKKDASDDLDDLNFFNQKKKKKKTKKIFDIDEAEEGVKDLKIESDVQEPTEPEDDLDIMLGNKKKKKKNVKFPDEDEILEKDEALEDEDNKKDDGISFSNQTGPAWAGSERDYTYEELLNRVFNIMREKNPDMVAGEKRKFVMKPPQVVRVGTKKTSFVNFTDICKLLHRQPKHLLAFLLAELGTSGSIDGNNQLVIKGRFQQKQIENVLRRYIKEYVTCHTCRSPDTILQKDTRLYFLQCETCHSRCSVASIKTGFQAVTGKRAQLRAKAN
Chain of eIF2 trimer (recombinant, not phosphorylated), P05198;P20042;P41091 (chain, as listed by the source, chain 3 of 3): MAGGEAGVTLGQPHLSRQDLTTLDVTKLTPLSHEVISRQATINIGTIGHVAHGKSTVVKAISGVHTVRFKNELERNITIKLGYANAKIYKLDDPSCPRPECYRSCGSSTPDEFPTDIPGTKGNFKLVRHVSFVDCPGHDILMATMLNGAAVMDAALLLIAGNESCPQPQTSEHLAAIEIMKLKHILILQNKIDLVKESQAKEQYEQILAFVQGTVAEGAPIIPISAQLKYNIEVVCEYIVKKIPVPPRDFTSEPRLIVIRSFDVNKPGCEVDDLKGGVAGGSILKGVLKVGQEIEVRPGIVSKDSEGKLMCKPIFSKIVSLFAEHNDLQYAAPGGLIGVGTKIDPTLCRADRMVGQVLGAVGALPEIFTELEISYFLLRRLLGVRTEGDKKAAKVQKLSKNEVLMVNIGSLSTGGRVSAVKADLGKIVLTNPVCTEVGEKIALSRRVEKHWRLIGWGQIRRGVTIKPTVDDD

With ASTPPASAALKAAVYRPGEDTEEEEDEDVDSEDKEDDSEAALGEAES, the response turned out to be 27 mP.
